Ends that are not written are not given here. * marks the point of attachment. linolenoyl = CH3CH2CH=CHCH2CH=CH(CH2)CH=CH(CH2)7CO, CC/C=C\C/C=C\C/C=C\CCCCCCCC(=O)*; Palmitoyl = CCCCCCCCCCCCCCCC(=O)*
Assays:
[1] = Size shrinkage of liposome after lyophilization; type: physicochemical; settings: 5% mannitol/10 mmol/L phosphate buffer
Source text: In the Table 16, all of the formulations 1-11 contained a buffer of 5% mannitol/10 mmol/L phosphate(KH2PO4/Na2HPO4 was 60/40)
When the addition amount of the concentrated liposome solution was 25-50% (v/v) of the semifinished product liquor for subpackage, addition of 1% human serum albumin as excipient will result in better lyophilization effects. Thus, when the volume of the concentrated liposome solution was equal to the volume of the emulsion (W/O), the volume of the concentrated liposome solution was determined as 37.5% (v/v) of the volume of the product liquor for subpackage, i.e., an average level of the amount of the concentrated liposome solution. In this case, the concentrations of the adjuvants in the product liquor for subpackage should meet the requirements as set forth in Table 16-4. The volume of subpackage should be 1 ml and meet the requirements for the formulation of lyophilized liposome injection. In practice, the volume of the concentrated liposome solution usually is greater than the volume of emulsion (W/O), so the volume of the product liquor for subpackage may be increased. Thus, the actual subpackage volume is calculated according to the following formula.

[2] = Encapsulation rate of liposome (RP-HPLC); type: physicochemical; settings: L9(3^4) orthogonal test of lipid components and liposome forming conditions; 6 mmol/L vitamin E
Procedure: Liposome was prepared by a double emulsion method. The lipid components were dissolved in ethyl ether solution, mixed with the concentrate of the present compound to form an emulsion (W/O), then poured into phosphate buffer (PB) or water under a controlled temperature and stirred to form a further emulsion (W/O/W), and liposome was gradually formed as ethyl ether gradually volatilized. The product in free form and aggregate and precipitate in the liquid was removed by concentration in ultrafiltration apparatus and dialysis (the dialysis must be 200 folds or higher) and by filtration via a 10 μm microporous filter. Aliquots were removed for reversed phase high performance liquid chromatography (RP-HPLC) to determine the encapsulation amount, and the encapsulation rate was calculated by comparing to the incorporated amount. L9(3^4) orthogonal table was used in the experimental design.
Based on the formulation and conditions determined by said orthogonal test, the effects of the concentration of the immunogen solution on the encapsulation rate of the liposome were compared. […]

HBV-DNA transgenic mice [3] = experiment: HBV transgenic mice: IFN-γ secreting cells, ELI-SPOT; type: in vivo; settings: 30th day after end of immunization
Procedure: (§1) The levels of cytokines such as IFN-γ, IL-4, etc. in supernatant were measured by the ELISA method, and the activity of the test drug (CH3(CH2)14COKSSQYIKANSKFIGITEAAASIVSPFIPLLGGGDPRVRGLYFPA) (SEQ ID NO:5) for inducing the differentiation of T cells into Th1/Th2 type was analyzed. […] The expression frequency of IFN-γ secreting cells in peripheral blood lymphocytes was measured by the ELI-SPOT method in said supernatant. […] On the 10th, 20th and 30th day after the end of the three immunizations, bloods were removed, serum isolated, and the contents of HBsAg and HBV-DNA in the serum were separately measured by the ELISA method and quantitative PCR method.
The expression frequency of IFN-γ secreting cells in peripheral blood lymphocytes was measured by the ELI-SPOT method.

[4] = tested on: HBV DNA in HBV transgenic mice; experiment: HBV transgenic mice: HBV DNA in serum, quantitative PCR; type: in vivo; settings: 10th, 20th, 30th day after three immunizations, 10-1000 U/mouse
Procedure: as §1

HBV-DNA transgenic mice [5] = experiment: HBV transgenic mice: cytokines of spleen lymphocytes, ELISA (Th1/Th2); type: in vivo; settings: 10, 100, 1000 U/mouse s.c., day 30; spleen lymphocytes restimulated with 10 ng/ml for 3 days
Procedure: as §1
Then supernatants were collected and the secretion levels of cytokines such as TNF-α, IFN-γ, IL-4, etc. in supernatants were measured by ELISA, and the activity of the test drug for inducing the conversion of Th1/Th2 type from T cells in subjects was analyzed.

[6] = tested on: hepatitis B surface antigen (HBsAg) in HBV transgenic mice; experiment: HBV transgenic mice: HBsAg in serum, ELISA; type: in vivo; settings: 10th, 20th, 30th day after three immunizations, 10-1000 U/mouse
Procedure: as §1

[7] = tested on: peripheral blood mononuclear lymphocytes of HLA-A2+ healthy person; settings: culture supernatant, 24 h after last stimulation
[8] = tested on: T2 cells, E6 cells and HepG2.2.15 cells; experiment: HBV-specific CTL from human PBMCs, 51Cr release cytotoxicity test; type: cell-based
Procedure: Human PBMCs were divided into groups and cultured in RPMI1640 culture media (containing 10% calf serum, and 100μ/ml penicillin-streptomycin) (10^6/ml, 24-well culture plates) in vitro for one day. After they recovered the original growth state, IL-2(30-IU/ml) and test drug (0.1 μg/ml, 1 μg/ml) were separately added. […] 3 days after the last stimulation, antigen-specific effective CTL cells were obtained. Cytotoxicity was tested by standard ^51Cr release tests and compared. Target cells (T2 cells and HepG2.2.1.5 cells pre-coated with peptide) were grown to a good state. 10 hours before the cells were used, 10 μg/ml test drug was added to the culture, and the cells were incubated. 10^6 Target cells were placed in 1 ml RPMI1640 media (containing 20% calf serum), and 100 μCi ^51Cr (NEN) was added for labelling in water-bath at 37° C. for 2 hours. The labelled target cells were washed with sterilized PBS buffer for 3 times under centrifugation (500 rpm/5 min), and were plated on 96-well V-bottom culture plates in an amount of 10^4 target cells/50 μl/well, each well was treated in triplicate. […] The minimum release value was 30% lower than the maximum release value. The formula for calculating ^51Cr release percentage was: [(CPMsample−CPMminimum release)/(CPMmaximum release−CMPminimum release)]×100%.

enzyme-labeled antibody = experiment: Potency/specific activity of stock solution or semifinished product, enzyme-linked plate; type: binding; settings: stock solution after reversed phase chromatography; batches 1-3 and x ± Sx
Source text: Chromatography column AP5 20/275 POROS 50 R1 was used in the batch production. After peptide-resin was cleaved and preliminarily purified, the collected εPA44 sample was divided into 7 parts for high purification, and the effects and reproducibility for batch purification of εPA44 stock solution were furthered studied. […] The collected elution peak fractions of εPA44 were pooled and mixed homogenously, aliquots were removed for analysis. If the sample met the set standards, it was used as the stock solution and was stored at −20° C. until use. The output, yield and specific activity of the product were calculated based on the measured data.
The semifinished product to be tested was diluted to a concentration within the measurable range of the potency determination. An enzyme-linked plate( ? ) was coated, blocked, bound by enzyme-labeled antibody, and developed. The absorbance at 450 nm (A450 nm) was detected by an enzyme-labeling device, and compared to the reference of the product. The potency of εPA44 in the extract of the sample was determined, and the specific activity of the semifinished product ( ? ) was calculated.
The reference of the product was 10-fold diluted with 50% ethanol, and then was two-fold serially diluted. 100 μl dilutions were separately added to the wells on the 96-well enzyme-linket immunosorbent assay plate, each well was repeated in triplicate. Coating was carried out in refrigerator at 4° C. for 20-24 hours. The stock solution of εPA44 was diluted and coated similarly to the reference. 100 μl of 50% ethanol was added to negative control wells. After the coating was completed, 200 μl 1% calf serum was added to each well, and blocked in refrigerator at 4° C. for 2 hours. The enzyme-linket immunosorbent assay plate was dried in air, 80 μl enzyme-labeled antibody was added to each well and incubated at 37° C. for 40 minutes. The plate was washed with wash solution for 4 times and dried in air, then 50 μl of substrate solution A and 50 μl of substrate solution B were added to each well and developed at 37° C. for 15 minutes under protection from light. Then 50 μl of stop solution was added to each well. A450 nm values were detected on 550 type enzyme-linket immunosorbent assay detector. The median dilution times of the reference and the samples were calculated by program or linear regression method based on the median effect value of the reference of εPA44 (median maximum absorbance), and the potency of the test sample and the specific activity of the product were calculated according to the following formulas.

HBV-DNA, HBeAg and HBsAg = experiment: FIG. 5: virus inhibition test with PBMC of HBV carrier and hepatitis patients; type: cell-based, hepatitis B virus; settings: supernatant, with increase of co-culture time
Source text: FIG. 5 indicated the antiviral effects of the immunogen of the present invention. Peripheral blood mononuclear lymphocytes were separately isolated from fresh peripheral bloods of a HLA-A2+HBV carrier, a patient suffering from acute hepatitis, and a patient suffering from chronic hepatitis, and were subjected to virus inhibition tests to measure the copy numbers of HBV-DNA (A) and secretion levels of HBeAg and HBsAg in the supernatant (B, C).

8 (PLGFFPDH; Hepatitis B virus) [compound 8]
degree of size shrinkage of the liposome after lyophilization [1]: − | Encapsulation rate [2]: 79.29%

10 (SILSKTGDPV; Hepatitis B virus) [compound 10]
degree of size shrinkage of the liposome after lyophilization [1]: +

CH3(CH2)14COKSSQYIKANSKFIGITEAAASIVSPFIPLLGGGDPRVRGLYFPA (Palmitoyl-KSSQYIKANSKFIGITEAAASIVSPFIPLLGGGDPRVRGLYFPA) [SEQ ID NO:5]
expression frequency of IFN-γ secreting cells in peripheral blood lymphocytes (HBV-DNA transgenic mice [3]; 10-1000 U/mouse): increased with the increase of immunogen dose | highest expression frequency of IFN-γ secreting cells (HBV-DNA transgenic mice [3]; IFN-α2b at 15000 U/mouse): 3660 IFN-γ secreting cells/10^6 PBMC | HBV-DNA in the serum (copy number, replication level) [4]: obvious decrease | IL-4 secretion (HBV-DNA transgenic mice [5]): did not exhibit an obvious dose-effect dependence relation | secretion of IFN-γ (HBV-DNA transgenic mice [5]): strong secretion of IFN-γ | HBsAg in the serum [6]: obvious decrease

5 (Palmitoyl-KSSQYIKANSKFIGITEAAASIVSPFIPLLGGGDPRVRGLYFPA) [compound 5]
degree of size shrinkage of the liposome after lyophilization [1]: +++ | Encapsulation rate [2]: 97.27%

CH3CH2CH═CHCH2CH═CH(CH2)CH═CH(CH2)7COKSSPAREGGGWLSLLVPFVSSSDP RVRGLYFPA [SEQ ID NO:2]
effect of inducing the secretion of IL-4 [7]: not obvious | secretion of IFN-γ [7]: induce the secretion of IFN-γ in a notable dose-effect dependence relation

1 (Palmitoyl-KSSQYIKANSKFIGITEAAAFLPSDFFPSVGGGDPRVRGLYFPA) [compound 1]
degree of size shrinkage of the liposome after lyophilization [1]: ++++ | Encapsulation rate [2]: 93.16%

9 (MQWNSTALHQALQDP; Hepatitis B virus) [compound 9]
degree of size shrinkage of the liposome after lyophilization [1]: + | Encapsulation rate [2]: 109.4%

CH3CH2CH═CHCH2CH═CH(CH2)CH═CH(CH2)7COFLPSDFFPSVAAADPRVRGLYFPA (linolenoyl-FLPSDFFPSVAAADPRVRGLYFPA) [SEQ ID NO:54]
specific killing of target cells [8]: specifically kill peptide pre-coated T2 cells, E cells and HepG2.2.15 cells | target cell-specific lysis rate ([8]; PBMCs of healthy human): up to 62.8%

CH3(CH2)14COKSSYIKANSK FIGITEAAAMQWNSTALHQALQDPGGGDPRVRGLYFPA (Palmitoyl-KSSYIKANSKFIGITEAAAMQWNSTALHQALQDPGGGDPRVRGLYFPA) [SEQ ID NO:72]
Specific activity (enzyme-labeled antibody): 11689.76±1503.57 U/mg

6 (QYIKANSKFIGITE; Th cell epitope from tetanus toxoid or variant species thereof) [compound 6]
degree of size shrinkage of the liposome after lyophilization [1]: +++ | Encapsulation rate [2]: 79.26%

7 (PADRE; Th cell epitope from tetanus toxoid or variant species thereof) [compound 7]
degree of size shrinkage of the liposome after lyophilization [1]: − | Encapsulation rate [2]: 53.75%

4 (Palmitoyl-KSSQYIKANSKFIGITEAAAFLPSDFFPSVGGGCTKPTDGNCT; cysteine pairing not given here) [compound 4]
degree of size shrinkage of the liposome after lyophilization [1]: ++ | Encapsulation rate [2]: 69.48%

CH3(CH2)14COKSSQYIKANSKFIGITEAAAFLPSDFFPSVGGGCTKPTDGNCT (Palmitoyl-KSSQYIKANSKFIGITEAAAFLPSDFFPSVGGGCTKPTDGNCT; cysteine pairing not given here) [SEQ ID NO:4]
copy numbers of HBV-DNA (HBV-DNA, HBeAg and HBsAg): inhibited in an obvious dose-effect dependence relation | secretion level of HBeAg (HBV-DNA, HBeAg and HBsAg): inhibited in an obvious dose-effect dependence relation | secretion level of HBsAg (HBV-DNA, HBeAg and HBsAg): inhibited in an obvious dose-effect dependence relation

3 (KSSQYIKANSKFIGITEGGGDPRVRGLYFPA; not fully specified (N-terminus); printed as CH3CH2CH═CHCH2CH═CH(CH2)7CO7KSSQYIKANSKFIGITEGGGDPRVRGLYFPA; also: N-terminal acyl on K unclear: CH3(CH2)7CH=CH(CH2)-CO or CH3CH2CH=CHCH2CH=CH(CH2)7CO) [compound 3]
degree of size shrinkage of the liposome after lyophilization [1]: +++ | Encapsulation rate [2]: 44.92%

From patent US8591908B2, “Immunogen for preparation of therapeutic vaccines or drugs for treatment of hepatitis B and the producing method and use thereof” (Institute of Immunology, PLA, priority 2002, dated 2013)
